The values that follow come from patent US20080299108A1, “Peptides for Diagnostic and Therapeutic Methods for Celiac Sprue” (priority 2005, published 2008).

Entries after “also recorded” stand apart in the source; their conditions may differ. Where no end group is shown, it is not given here.

For data set [1], the target named is T1, HLA-DQ2 (Homo sapiens, UniProt P01909+P01920, A45G/A70V/D89A/E106A/E77G/E98D/H199R/L107V/N214S/P84L/P87L/T103K/T109R/T172A/T60S/V78E/V99I/Y58L/Y62S/Y69I/Y79F).
T1 construct: the soluble extracellular domains of the DQ2 α and β chains were co-expressed; Fos leucine zipper, joined through a factor Xa site (C); gliadin peptide […]; Jun leucine zipper, joined through a factor Xa site (C); made in house; host or cells: High Five insect cells, pAcAB3 baculovirus
Description: Peptide exchange assay (HPSEC, fluorescein-conjugated peptides). It is filed as binding. As to conditions: for DQ2 binding affinity: pH 5 and pH 7; for maximum occupancy (DQ2 bound peptide): pH 7.3, 45 h; for binding maximum (DQ2 bound peptide as percentage of total peptide): pH 5.5, 37° C., 45 h, 4.7 μM DQ2, 0.18 μM peptide. On the procedure: FIG. 8. Equilibrium occupancy of individual peptides listed in Table 1 in the DQ2 binding pocket, as measured by peptide exchange assays. Measurements were made at (A) pH 5.5 and (B) pH 7.3. 4.7 μM DQ2 was mixed with 0.18 μM fluorescein-conjugated peptide at 37° C. for 45 h, and the abundance of DQ2 bound peptide was calculated as a percentage of total peptide.
DQ2 expression and purification. Soluble DQ2 molecules were expressed and purified as previously described. Briefly, the soluble extracellular domains of the DQ2 α and β chains were co-expressed in High Five insect cells using a pAcAB3 baculovirus expression system, and were affinity-purified using the anti-DQ2 mAb 2.12.E11. […] A complementary Fos/Jun leucine zipper pair was engineered at the C-terminal ends of α and β chains, respectively, with intervening factor Xa proteolysis sites, to increase the heterodimer stability during protein expression.
The concentration of HLA-DQ2 was determined by UV spectrophotometry at 280 nm using the absorption coefficient factor 75,700 cm^−1M^−1 as calculated from the contents of tyrosine, tryptophan and cystine in the DQ2 sequence (22). Prior to use in binding experiments with exogenous ligands, the DQ2-ligand fusion protein was first treated with ˜2% w/w thrombin in pH 7.3 PBS at 0° C. for 2 h.
Peptide exchange assay. For peptide exchange experiments, the DQ2 heterodimer purified as described above was incubated with fluorescein-conjugated ligands in a 25:1 ratio (i.e. 4.7 μM DQ2 with 0.18 μM fluorescent peptide). Incubations were performed at 37° C. in a 1:1 mixture of PBS buffer (10 mM Pi, 150 mM NaCl, pH 7.3, supplemented with 0.02% NaN3) and McIlvaine's citrate-phosphate buffers (pH 5 or pH 7) such that the final pH was either 5.5 or 7.3, respectively. Peptide binding was measured by high performance size exclusion chromatography (HPSEC) (17). 1 μl of reaction mixture was diluted into 14 μl PBS. 12.5 μl of the diluted material was injected onto a BioSep 3000 size exclusion column (Phenomenex), and eluted with PBS buffer at 1 ml/min. The DQ2-peptide complex eluted at 8.5 min, with free peptides emerging […] later. The fluorescence signal was recorded using an in-line Shimadzu RA35 fluorescent detector with excitation wavelength set at 495 nm and emission detection set at 520 nm. Peak areas corresponding to the DQ2-peptide complex and the free peptide were used to calculate the fractional yield of the DQ2-fluoresceinated peptide complex.
(In gel filtration, larger molecules generally elute earlier.)

Data set [2] deals with polyclonal T cell line that recognizes all α epitopes. Nature of the data set: T cell proliferation, polyclonal T cell line (FIG. 9A). Format: cell-based, human. Conditions: paraformaldehyde-fixed DQ2 antigen presenting cells. On the procedure: (§1) FIG. 9A-9B. […] Paraformaldehyde-fixed DQ2 cells were used as antigen presenting cells. (A) Proliferation of a polyclonal T cell line that recognizes all α epitopes. (B) Proliferation of a clonal T cell line that recognizes the αII epitope (peptide 3).
(§2) T cell proliferation assays. The DQ2 homozygous […] cell line (LCL) VAVY cells were irradiated with 12,000 rads of γ-irradiation or fixed with 1% paraformaldehyde for 10 minutes as indicated, and incubated with the appropriate peptides overnight in media containing 10% fetal bovine serum, 2% human serum, penicillin and streptomycin at a cell density of 2×10^6 cells/ml in 96-well plates. The next day, the volume was doubled to yield a cell density of 1×10^6 cells/ml, 50 μl of which was placed into a U-bottom 96-well plate. An equal volume of T-cells (50 μl of 1×10^6 cells/ml) was added to each well, and cells were incubated at 37° C. and 5% CO2 for 48 h, at which point 0.5 μCi/well of [methyl-^3H] thymidine (Amersham, TRK120) was added. […] After thawing, incorporated thymidine was collected on a filter mat (Wallac, 1205-401) using a Tomtec cell harvester, and counted using a Wallac 1205 Betaplate liquid scintillation counter.
(§3) To test this hypothesis, we synthesized the 20-mer peptide 5, and quantitatively compared its ability to bind DQ2 in peptide exchange and dissociation assays. […]

Data set [3] has as its system clonal T cell line that recognizes the αII epitope. Description: T cell proliferation, clonal T cell line (FIG. 9B). It is filed as cell-based, human. As to conditions: paraformaldehyde-fixed DQ2 antigen presenting cells. On the procedure:
as §1, §2, §3

For data set [4], the system named is rat brush border membrane (BBM) protein. Description: Rat brush border membrane (BBM) digestion of gliadin peptides, LC-MS. Format: in vitro ADME. As to conditions: 27 ng/μl rat BBM protein. On the procedure:
To dissect this complex process, liquid chromatography coupled mass spectroscopy analysis (LC-MS-MS) was utilized to investigate the pathways and associated kinetics of hydrolysis of immunodominant gliadin peptides treated with rat BBM preparations. Because the rodent is an excellent small animal model for human intestinal structure and function, rat BBM was chosen as a suitable model system for these studies.
BBM fractions were prepared from rat small intestinal mucosa as described by Ahnen et al. (1982) J. Biol. Chem. 257, 12129-35. […] No proline aminopeptidase (EC 3.4.11.5) or prolyl endopeptidase activity (PEP, EC 3.4.21.26) activity was detectable (<5 μU/μg). Alkaline phosphatase and sucrase were used as control BBM enzymes with activities of 66 μU/μg and 350 μU/μg, respectively.
BBM fractions were partially purified from the small intestinal mucosa of adult female rats maintained on an ad libitum diet of wheat-based standard rodent chow. Total protein content was determined by a modified method of Lowry with BSA as a standard. Alkaline phosphatase activity was determined with nitrophenyl phosphate. Sucrase activity was measured using a coupled glucose assay.
Proteolysis with the BBM preparation was investigated using the peptide (SEQ ID NO:1) (SEQ ID NO:1) […], a product of chymotryptic digestion of α-9 gliadin (Arentz-Hansen et al. (2000) J. Exp. Med. 191, 603-12). […] It was subjected to BBM digestion, followed by LC-MS-MS analysis. A standard 50 μl digestion mixture contained 100 μM of synthetic peptide, 10 μM tryptophan and Cbz-tryptophan as internal standards, and resuspended BBM preparations with a final protein content of 27 ng/μl and exogenous proteins, as indicated, in phosphate buffered saline. After incubation at 37° C. for the indicated time, the enzymes were inactivated by heating to 95° C. for 3 minutes. The reaction mixtures were analyzed by LC-MS (SpectraSystem, ThermoFinnigan) using a C18 reversed phase column (Vydac 218TP5215, 2.1×150 mm) with water:acetonitrile:formic acid (0.1%):trifluoroacetic acid (0.025%) as the mobile phase (flow: 0.2 ml/min) and a gradient of 10% acetonitrile for 3 minutes, 10-20% for 3 minutes, 20-25% for 21 minutes followed by a 95% wash. Peptide fragments in the mass range of m/z=300-2000 were detected by electrospray ionization mass spectroscopy using a LCQ ion trap, and their identities were confirmed by MSMS fragmentation patterns.

The subject of data set [5] is rat small intestinal brush-border membrane (BBM) enzymes. Description: Rat BBM digestion of peptides from α2-gliadin (12 ng/μl BBM protein). Format: in vitro ADME. On the procedure:
BBM fractions were prepared from rat small intestinal mucosa.

Data set [6] relates to pepsin, trypsin, chymotrypsin, elastase and carboxypeptidase.
Data set [7] has as its target soluble HLA-DQ2 heterodimer (extracellular domains of the DQ2 α and β chains with Fos/Jun leucine zippers), thrombin-treated (human). Nature of the data set: peptide exchange kinetics, HPSEC.
For data set [8] the target is unchanged. Nature of the data set: peptide exchange kinetics, HPSEC, pH 7.3.
The target of data set [9] is 33-mer α2-gliadin peptide (non-deamidated), residues 57-89.

In the case of “LQLQPFPQPEKPYPQPELPY [Peptide 17, L11K analogue of 20-mer peptide 5]”, the “DQ2 binding affinity” value in data set [1] is “bound poorly to DQ2”.
The same measure, in the same setting: the entry for “LQLQPFPQPELPYPQPEKPY [Peptide 18, L18K analogue of 20-mer peptide 5]” is “bound poorly to DQ2”.
In the case of LQLQPFPQPELPYPQPELPY [Peptide 5], the “T cell stimulatory characteristics” value in [2] is “substantially more potent T cell antigens than the minimal αII epitope peptide 3”. Besides, in data set [3], the “T cell stimulatory capacity” value is listed as “comparable T cell stimulatory capacity that exceeds that of peptide 3”. For the same molecule, in data set [1], the “DQ2 binding affinity” value is listed as “comparable to the 33-mer peptide 1 in all in vitro assays; also recorded: binds to DQ2 equally well as the 33-mer peptide 1”.
On to “LQLQPFPQPELPYPQPELPYPQPELPYPQPQPF [Peptide 1]”, for which the “T cell stimulatory characteristics” value in data set [2] was “substantially more potent T cell antigens than the minimal αII epitope peptide 3”. The “T cell stimulatory capacity” value in [3] was “comparable T cell stimulatory capacity that exceeds that of peptide 3”. Moreover, the “time to half maximal DQ2 occupancy” value in [1] (exchange kinetics) was roughly 8 h. The “maximum occupancy (DQ2 bound peptide)” value in [1] amounted to 28%.
In the case of “LQLQPFPQPELPYPQPELPYPQPQLPYPQPQPF [Peptide 14]”, the “DQ2 binding affinity” value in data set [1] is recorded as “significantly enhances affinity relative to Q10E (11)”.
With “LQLQPFPQPELPYPQPQLPYPQPELPYPQPQPF [Peptide 15]”, the “DQ2 binding affinity” value in [1] was “significantly enhances affinity relative to Q10E (11)”.
On to “LQLQPFPQPELPYPQPQLPYPQPQLPYPQPQPF [Peptide 11]”, for which the “DQ2 binding affinity” value in data set [1] was “higher affinity for DQ2 than either Q17E (12) or Q24E (13)”.
“LQLQPFPQPQLPYPQPELPYPQPELPYPQPQPF [Peptide 16]”: the “DQ2 binding affinity” value in data set [1] is reported as “approximates the 33-mer binding characteristics”.
Regarding PFPQPELPY [Peptide 2], in data set [1], the “binding maximum (DQ2 bound peptide as percentage of total peptide)” value is “less than 1%” and the “maximum occupancy (DQ2 bound peptide)” value is recorded as “undetectable”.
Turning to PQPELPYPQ [Peptide 3], in [1], the “binding maximum (DQ2 bound peptide as percentage of total peptide)” value stood at 7%.
Turning to PQPELPYPQPELPY [Peptide 6], the “DQ2 binding affinity” value in [1] is given as “considerably lower affinity for DQ2 than peptide 5”.
In the case of PQPQLPYPQPQLP, in data set [4], the “stability toward BBM digestion” value is “highly resistant to further digestion”.
On to RRLIEDNEYTARG, for which the “clearance of digestive intermediates” value in [4] is reported as “cleared completely within one hour”. In addition, the “apparent half time of disappearance of the parent peptide (t1/2)” value in [4] (100 μM peptide, 37° C.) turned out to be 10 min.
WQIPEQSR returned a half-life of disappearance in [5] of roughly 60 min.

B1: myoglobin: another common dietary protein (protein, UniProt P02144 2-154, looked up)
Myoglobin: GLSDGEWQLVLNVWGKVEADIPGHGQEVLIRLFKGHPETLEKFDKFKHLKSEDEMKASEDLKKHGATVLTALGGILKKKGHHEAEIKPLAQSHATKHKIPVKYLEFISECIIQVLQSKHPGDFGADAQGAMNKALELFRKDMASNYKELGFQG
Take B1: the “stability toward gastric and pancreatic proteases” value in data set [6] is “rapidly broken down into much smaller products”.
Consider {5(6)‑carboxyfluorescein}-LQLQPFPQPELPYPQPELPYPQPELPYPQPQPF [33-mer peptide 1 (deamidated 33-mer from α2-gliadin), fluorescein-conjugated], for which the time to half maximal DQ2 occupancy in [7] was found to be 8 h. Moreover, the maximum occupancy in data set [8] turned out to be 28%.

B2: human tissue transglutaminase (tTGase) (protein)
chain: AEELVLERCDLELETNGRDHHTADLCREKLVVRRGQPFWLTLHFEGRNYEASVDSLTFSVVTGPAPSQEAGTKARFPLRDAVEEGDWTATVVDQQDCTLSLQLTTPANAPIGLYRLSLEASTGYQGSSFVLGHFILLFNAWCPADAVYLDSEEERQEYVLTQQGFIYQGSAKFIKNIPWNFGQFEDGILDICLILLDVNPKFLKNAGRDCSRRSSPVYVGRVVSGMVNCNDDQGVLLGRWDNNYGDGVSPMSWIGSVDILRRWKNHGCQRVKYGQCWVFAAVACTVLRCLGIPTRVVTNYNSAHDQNSNLLIEYFRNEFGEIQGDKSEMIWNFHCWVESWMTRPDLQPGYEGWQALDPTPQEKSEGTYCCGPVPVRAIKEGDLSTKYDAPFVFAEVNADVVDWIQQDDGSVHKSINRSLIVGLKISTKSVGRDEREDITHTYKYPEGSSEEREAFTRANHLNKLAEKEETGMAMRIRVGQSMNMGSDFDVFAHITNNTAEEYVCRLLLCARTVSYNGILGPECGTKYLLNLNLEPFSEKSVPLCILYEKYRDCLTESNLIKVRALLVEPVINSYLLAERDLYLENPEIKIRILGEPKQKRKLVAEVSLQNPLPVALEGCTFTVEGAGLTEEQKTVEIPDPVEAGEEVKVRMDLLPLHMGLHKLVVNFESDKLKAVKGFRNVIIGPA
For the molecule B2, in [9], the “kcat/KM (deamidation by tTGase)” value was “kcat/KM=440 min-1 mM-1”.
